Measured values as given in article PMC4490410.

Tests used:
Conditions in all cases: remark: other sources report otherwise
[1] = molecular target: T1, DJ-1 (endogenous, human) (human (endogenous in human brain, M17D cells, iPSC-derived neurons)), Q99497; test: cross-linking; intact-cell crosslinking of minced, washed fresh human cortical biopsy; 1 mM DSG at increasing volume-to-protein ratio (DSP reduced by βME for total αS), 37 °C 30 min; then PBS ('cytosol') and TX-100 ('membrane') fractions, western blot
T1 chain: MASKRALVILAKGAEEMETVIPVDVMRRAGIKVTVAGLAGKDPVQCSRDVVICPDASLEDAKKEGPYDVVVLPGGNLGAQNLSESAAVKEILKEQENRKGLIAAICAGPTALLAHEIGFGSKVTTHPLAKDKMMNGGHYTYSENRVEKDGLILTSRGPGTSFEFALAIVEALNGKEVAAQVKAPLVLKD

[2] = molecular target: T1, DJ-1 (endogenous, human) (human …); test: cross-linking; intact M17D cells transiently transfected with untagged αS variants; 1 mM DSG or 1.75 mM DSP, 30 min 37 °C; cytosol (PBS) or PBS/1% TX-100 lysate, western blot (Syn1) densitometry; values of the fPD mutants from a meta-analysis of DSG and DSP experiments
[3] = molecular target: T1, DJ-1 (endogenous, human) (human …); test: cross-linking; intact neurons differentiated from A53T patient iPSCs or the corrected isogenic line; DSG; sequential extraction, cytosol blotted with 2F12, C20, Syn1

stoichiometry N [1]: 2 | stoichiometry N [2]: 2 | stoichiometry N [3]: 2
B1: DJ-1 (endogenous, human), Q99497 1-189 (natural protein)
chain: T1 chain
